# According to patent US6001657:
# Tests used:
# [1] = test system: anti-quadruplex monoclonal autoantibody me^v-alphaQ1 (Mus musculus); test: filter; conditions: RIFB, Scatchard, TEP buffer 150 mM KCl, 37 C
# [2] = test system: anti-quadruplex monoclonal autoantibody me^v-alphaQ1 (Mus musculus); test: FP filter; conditions: nitrocellulose filter binding (RIFB), Scatchard; TEP buffer 50 mM Tris pH 7.4, 5 mM EDTA, 150 mM KCl, 37 C; Ka 2.7e6 M^-1 in table (text prints 2.7e5)
substance,measurement,setting,value
CCCCTTTGGGGTTTGGGG [d(C4T3G4T3G4) triplex],Kd,[1]; Ka 5.0e5 M^-1,2000 nM
CGCGCGCGCG (double strand) [d(CG5)2 duplex],Kd,"[1]; Ka 3.8e5 M^-1, negative control in screening",2600 nM
CGCGGGGGCG [d(CGC G4 GCG)4 quadruplex],Kd,[1]; Ka 1.6e6 M^-1,630 nM
GGGGTTTGGGGTTTCCCC [d(G4T3G4T3C4) triplex],Kd,[1]; Ka 6.8e5 M^-1,1500 nM
TGGGG [d(TG4)4 quadruplex],Kd,[1]; Ka 2.5e6 M^-1,400 nM
TTGGGGTTGGGGTTGGGGTTGGGG [(TET4)4 quadruplex],Kd,[2],370 nM
poly r(G),Kd,[1]; Ka 4.0e5 M^-1,2500 nM
